This assay concerns the target LPD-3 (C-terminally tagged, from lpd3::mvenus worms) (C. elegans, UniProt A0A0K3AWP8 1-4022). The assay can be described thus: affinity purification with mass spectrometry.

B1: Spigot (natural protein, C. elegans, UniProt Q4W5H0 1-276, looked up)
chain: MRIFVFDGTSVIYVCAVIILILIWVAIIGQRQIWRHRHNVARVRPQVSLSSRISSKKAVLLRETQLDTVMRLRCENQARLTDCISLQFHGEKPYVHRMIAVDEVTLEIDGQLNRIEGAVQRQAGESTYSYLKRIREKVPSIPLNLVHRIAFLQESARFRPEKFDVEQVMELRSLLNQFLRILSAEYDSLSDEPDMAAPRGVIASFYQFGQKIMPNNSGSKRRRNKFGGSDGVRLLMKEREEQLSLLSPLARASADSPAPAAHLRRQSDSHSALLPQ
Regarding B1, the binding result is recorded as “binds”.

These data come from doi:10.1101/2024.06.21.600134 (bioRxiv, 2024).
